Assays:
[1] = system: somatostatin receptor subtype 2 (SSTR2); conditions: ref Li et al. [2023]; cited from earlier work
From the text: (§1) The well-known chelator DOTA and its derivatives tend to lose up to 40% of ^212Bi from its ^212Pb-complexes due to β^–-conversion accompanied by 38% conversion electrons and a cascade of Auger-Meitner electrons (Mirzadeh et al. [1993]; Bauer et al. [2024]). […] PSC-PEG2-TOC (VMT-α-NET) is a somatostatin receptor subtype 2 (SSTR2) targeting peptide of very high stability for the treatment of neuroendocrine tumours ...

[2] = Stability of the 212Pb-labelled product at room temperature (radio-TLC); type: physicochemical
Method: Since the radiolysis and alpha decay is often discussed as fatal for the radiolabelled molecules in solution (Roscher et al. [2020]), the stability of the ^212Pb-labelled product was tested at room temperature. A TLC sample was taken from the product vial 4 h after radiosynthesis. Right after development of the TLC strip, > 20% of activity was found as unbound activity at the front of the TLC (Fig. S3). […] The activity at the front of the TLC was mainly due to free ^208Tl, which is reasonable due to 36% direct alpha decay from ^212Bi.
RCP was monitored by thin-layer chromatography (TLC) on iTLC-SG plates (Agilent, Santa Clara, California, USA). Measurement of the radionuclidic purity (RNP) and evaluation of the radio-TLC and was performed with a thin-layer scanner (MiniScanPRO + , Eckert&Ziegler Eurotope GmbH, Berlin, Germany) equipped with a Model 43–2 alpha detector ZnS(Ag) scintillator (Ludlum Measurements, Sweetwater, Texas, USA) and a built-in multi-channel analyzer for gamma spectroscopy.

[3] = system: neuroendocrine tumours (NET); assay: Individual patient application of the 212Pb-labelled peptide; type: in vivo, human; conditions: patients, doses of 1–1.5 MBq/kg
Method: The precursor concentration (0.1 µg/MBq) results in a maximum mass of 50 µg (31.7 nmol) for 500 MBq ^212Pb-labelled peptide, which is half to the mass used for routine ^177Lu-preparations with 5000 MBq (Brogsitter et al. [2017]). At this concentration, any ^212Bi generated during the reaction time by free ^212Pb is rebound by the precursor (Li et al. [2023]). Typically, doses of 1–1.5 MBq/kg were administered per patient. […] The detailed results of patient treatments will be discussed in a further publication.

[4] = DOTA and its derivatives; ref Mirzadeh et al. [1993]; Bauer et al. [2024]; cited from earlier work
From the text: as §1

PSC-PEG2-TOC [VMT-α-NET]
renal excretion [1]: fast renal excretion
tumour accumulation [1]: rapid tumour accumulation
tumour retention [1]: high tumour retention

[^212Pb]Pb-PSC-PEG2-TOC [[^212Pb]Pb-VMT-α-NET]
free 212Bi together with free 208Tl daughter nuclides observed in the TLCs ([2]; 4 h after radiosynthesis, radio-TLC): up to 20%
spot for unbound radionuclides on TLC ([2]; product vial at room temperature, TLC sample taken 4 h after radiosynthesis, measured 10 h after development of the TLC strip, iTLC-SG, citrate eluant (Fig. S4)): below 5%
unbound activity at the front of the TLC ([2]; product vial at room temperature, TLC sample taken 4 h after radiosynthesis, measured right after development of the TLC strip, iTLC-SG, citrate eluant (Fig. S3)): > 20%
radiolysis of the 212Pb-labelled product ([2]; room temperature, within 4 h after radiosynthesis, radio-TLC): no significant radiolysis
disease response in individual patient application [3]: stable disease for more than six months

O=C(O)CN1CCN(CC(=O)O)CCN(CC(=O)O)CCN(CC(=O)O)CC1 [DOTA]
loss of 212Bi from 212Pb-complexes due to β−-conversion [4]: up to 40%

Reference: publication PMC11602913 (EJNMMI Radiopharmacy and Chemistry, 2024)
